In patent US5817490A, “Enzymatic process for the manufacture of ascorbic acid 2-keto-L-gulonic acid and esters of 2-keto-L-gulonic acid” (Eastman Chemical Company, priority 1997, dated 1998):
Read-outs that look alike come from different tables or passages of the source.

Tests used:
[1] = format: physicochemical
Experimental: HPLC sample standards were prepared by dissolving KLG, MeKLG, ascorbic acid (ASA), and butyl-KLG to the appropriate concentration in water. Samples of these standards were placed in filled and sealed vials, stored at room temperature, and analyzed periodically. The HPLC was calibrated on the area response for standards that were injected onto the HPLC as soon as possible after the preparation of the standards.

[2] = solubility of butyl-KLG in water; format: physicochemical
Description: The recrystallized butyl-KLG of this example had satisfactory proton and carbon NMR spectra and gave the predicted molecular weight by field desorption mass spectrometry.

[3] = enzyme screen for hydrolysis/methanolysis of butyl-KLG (HPLC of products and remaining substrate); format: biochemical; parameters: KLG formed / MeKLG formed / ASA formed / BuKLG (remaining substrate): unit: ppm
Experimental: (§1) Initial enzyme screens were carried out as follows. Enzyme (typically 10 mg), aqueous buffer (typically 860 microliters (ul) or 550 ul), aqueous 0.2M CaCl2 (10 ul), methanol (typically 90 ul or 400 ul), and an aqueous solution of substrate (typically 90 ul of butyl-KLG at a typical concentration of 110,000 ppm) were added to a 2 ml polypropylene centrifuge tube. The resulting solution was vortexed briefly and placed on a shaker bath at 300 rpm at 38° C. (typically for 18 hours or more). After incubation, samples were centrifuged at 14,000 G's (14,000 times gravity) for 20 minutes to remove enzyme, sampled (300 ul), and diluted to one milliliter with distilled water. If not analyzed by HPLC within the day, samples were frozen prior to analysis.
The data were reported in terms of parts per million of KLG, MeKLG, ascorbic acid (ASA) and butyl-KLG. […] Samples labeled as "no enzyme" were controls within a given run. The controls contained substrate but no enzyme and thus represented experimental and HPLC background data.

[4] = enzyme screen for methanolysis of KLG; format: biochemical; parameters: unit not given here; conditions: Table 14: 38° C., 19 Hours, 8.6% Methanol-Water, 0.2M MES Buffer
Experimental: as §1

[5] = Example 4: 38% methanol-water, MES, pH 5 to 5.8
[6] = Example 8: 8.6% methanol-water, MES, pH approximately 5.8 to 6.2
[7] = Example 9: 8.6% methanol-water, 0.2M MES
[8] = Table 3: 38° C., 16 Hours, 38% Methanol-Water, 0.1M MES Buffer
[9] = Table 4: 38° C., 47.5 Hours, 38% Methanol-Water, 0.1M MES Buffer
[10] = Table 7: 38° C., 19 Hours, 8.6% Methanol-Water, 0.1M MES
[11] = Table 8: 38° C., 21 Hours, 8.6% Methanol-Water, 0.2 M MES
[12] = Table 9: 38° C., 19 Hours, 8.6% Methanol-Water, 0.2M MES Buffer
[13] = Table 10: 38° C., 19 Hours, 38% Methanol-Water, 0.2M MES Buffer
[14] = Table 11: 38° C., ca. 19 Hours, 8.6% Methanol-Water, 0.2M Pyridine/Pyridinium Hydrochloride
[15] = Table 12: 38° C., ca. 19 Hours, 38% Methanol-Water, 0.2M pyridine buffer, pH 4.7 to 5.1
[16] = Table 13: 38° C., 20 Hours, 8.6% Methanol-Water, pH 2.3, 0.2M Phosphate Buffer

COC(=O)C(=O)[C@@H](O)[C@H](O)[C@@H](O)CO [MeKLG, methyl-2-keto-L-gulonate]
Amount Found ([1]; 50 ppm standard, 0 minutes): 51.4 ppm | Amount Found ([1]; 50 ppm standard, 400 minutes): 47.7 ppm | Amount Found ([1]; 50 ppm standard, 715 minutes): 43 ppm | Amount Found ([1]; 100 ppm standard, 0 minutes): 103 ppm | Amount Found ([1]; 100 ppm standard, 400 minutes): 106.8 ppm | Amount Found ([1]; 100 ppm standard, 715 minutes): 90.2 ppm | Amount Found ([1]; 500 ppm standard, 0 minutes): 514 ppm | Amount Found ([1]; 500 ppm standard, 400 minutes): 496 ppm | Amount Found ([1]; 500 ppm standard, 715 minutes): 495 ppm

CCCCOC(=O)C(=O)[C@@H](O)[C@H](O)[C@@H](O)CO [butyl-KLG, butyl 2-keto-L-gulonate]
Amount Found ([1]; 50 ppm standard, 0 minutes): 50.6 ppm | Amount Found ([1]; 50 ppm standard, 400 minutes): 42.7 ppm | Amount Found ([1]; 50 ppm standard, 715 minutes): 38.2 ppm | Amount Found ([1]; 100 ppm standard, 0 minutes): 101 ppm | Amount Found ([1]; 100 ppm standard, 400 minutes): 100.1 ppm | Amount Found ([1]; 100 ppm standard, 715 minutes): 94.2 ppm | Amount Found ([1]; 500 ppm standard, 0 minutes): 506 ppm | Amount Found ([1]; 500 ppm standard, 400 minutes): 512 ppm | Amount Found ([1]; 500 ppm standard, 715 minutes): 499 ppm | solubility [2]: ≥ 500 mg/mL

O=C(O)C(=O)[C@@H](O)[C@H](O)[C@@H](O)CO [KLG, 2-keto-L-gulonic acid]
Amount Found ([1]; 50 ppm standard, 0 minutes): 51 ppm | Amount Found ([1]; 50 ppm standard, 400 minutes): 39.9 ppm | Amount Found ([1]; 50 ppm standard, 715 minutes): 52 ppm | Amount Found ([1]; 100 ppm standard, 0 minutes): 102 ppm | Amount Found ([1]; 100 ppm standard, 400 minutes): 94.3 ppm | Amount Found ([1]; 100 ppm standard, 715 minutes): 81.8 ppm | Amount Found ([1]; 500 ppm standard, 0 minutes): 510 ppm | Amount Found ([1]; 500 ppm standard, 400 minutes): 479 ppm | Amount Found ([1]; 500 ppm standard, 715 minutes): 493 ppm

B1: Pig Liver Esterase: pig liver esterase (a hydrolase) (protein)
chain: MWLLPLVLTSLASSATWAGQPASPPVVDTAQGRVLGKYVSLEGLAFTQPVAVFLGVPFAKPPLGSLRFAPPQPAEPWSFVKNTTSYPPMCCQDPVVEQMTSDLFTNFTGKERLTLEFSEDCLYLNIYTPADLTKRGRLPVMVWIHGGGLVLGGAPMYDGVVLAAHENFTVVVVAIQYRLGIWGFFSTGDEHSRGNWGHLDQVAALHWVQENIANFGGDPGSVTIFGESFTAGGESVSVLVLSPLAKNLFHRAISESGVALTVALVRKDMKAAAKQIAVLAGCKTTTSAVFTFVHCLRQKSEDELLDLTLKMKFLTLDFHGDQRESHPFLPTVVDGVLLPKMPEEILAEKDFTFNTVPYIVGINKQEFGWLLPTMMGFPLSEGKLDQKTATSLLWKSYPIANIPEELTPVATFTDKYLGGTDDPVKKKDLFLDLMGDVVFGVPSVTVARQHRDAGAPTYMYEFQYRPSFSSDKFTKPKTVIGDHGDEIFSVFGFPLLKGDAPEEEVSLSKTVMKFWANFARSGNPNGEGLPHWPFTMYDQEEGYLQIGVNTQAAKRLKGEEVAFWNDLLSKEAAKKPPKIKHAEL
levels of activity / conversion of butyl-KLG ([3]; Example 3: 38% methanol-water, MES, pH 4.8 to 5.8): particularly high levels of activity | levels of activity / conversion of butyl-KLG [3, 5]: particularly high levels of activity | levels of activity / conversion of butyl-KLG ([3]; Example 7: 8.6% methanol-water, MES, pH approximately 5 to 6): particularly high levels of activity | levels of activity / conversion of butyl-KLG [3, 6]: particularly high levels of activity | conversions to ascorbic acid [3, 7]: significant conversions to ascorbic acid | selectivity (transesterification) [3, 7]: selectivity toward transesterification | levels of activity / conversion of butyl-KLG ([3]; Example 9: 8.6% methanol-water, 0.2M MES, pH approximately 5.6 to 6): particularly high levels of activity | levels of activity / conversion of butyl-KLG ([3]; Example 10: 38% methanol-water, 0.2M MES, pH approximately 5.6 to 6.2): Decreased, although still appreciable, activity | levels of activity / conversion of butyl-KLG ([3]; Example 11: 8.6% methanol-water, pyridine buffer, pH approximately 4.9 to 5.3): particularly high levels of activity | ASA formed [3, 8]: 294 ppm | BuKLG (remaining substrate) [3, 8]: 5711 ppm | KLG formed [3, 8]: 446 ppm | MeKLG formed [3, 8]: 4377 ppm | ASA formed [3, 9]: 246 ppm | BuKLG (remaining substrate) [3, 9]: 1368 ppm | KLG formed [3, 9]: 705 ppm | MeKLG formed [3, 9]: 2720 ppm | ASA formed [3, 10]: 423 | BuKLG (remaining substrate) [3, 10]: 10 | KLG formed [3, 10]: 2726 | MeKLG formed [3, 10]: 3731 | ASA formed [3, 11]: 717 ppm | BuKLG (remaining substrate) [3, 11]: 83 ppm | KLG formed [3, 11]: 2373 ppm | MeKLG formed [3, 11]: 4167 ppm | ASA formed [3, 12]: 650 ppm | BuKLG (remaining substrate) [3, 12]: 0 ppm | KLG formed [3, 12]: 1947 ppm | MeKLG formed [3, 12]: 4258 ppm | ASA formed [3, 13]: 173 ppm | BuKLG (remaining substrate) [3, 13]: 7030 ppm | KLG formed [3, 13]: 203 ppm | MeKLG formed [3, 13]: 1654 ppm | ASA formed [3, 14]: 37 ppm | BuKLG (remaining substrate) [3, 14]: 390 ppm | KLG formed [3, 14]: 1613 ppm | MeKLG formed [3, 14]: 5787 ppm | ASA formed [3, 15]: 0 | BuKLG (remaining substrate) [3, 15]: 11750 | KLG formed [3, 15]: 47 | MeKLG formed [3, 15]: 197 | ASA formed [3, 16]: 0 | BuKLG (remaining substrate) [3, 16]: 9500 | KLG formed [3, 16]: 417 | MeKLG formed [3, 16]: 93 | ASA formed [4]: 0 | BuKLG [4]: 0 | KLG (remaining substrate) [4]: 4393 | MeKLG formed [4]: 0

B2: ChiroCLEC-BL (Dry): crystalline crosslinked enzyme, a crystalline form of Subtilisin (a protease) (Altus Biologics) (protein, UniProt P00780 106-379, looked up)
Subtilisin Carlsberg: AQTVPYGIPLIKADKVQAQGFKGANVKVAVLDTGIQASHPDLNVVGGASFVAGEAYNTDGNGHGTHVAGTVAALDNTTGVLGVAPSVSLYAVKVLNSSGSGSYSGIVSGIEWATTNGMDVINMSLGGASGSTAMKQAVDNAYAKGVVVVAAAGNSGSSGNTNTIGYPAKYDSVIAVGAVDSNSNRASFSSVGAELEVMAPGAGVYSTYPTNTYATLNGTSMASPHVAGAAALILSKHPNLSASQVRNRLSSTATYLGSSFYYGKGLINVEAAAQ
modifications: crystalline cross-linked enzyme
levels of activity / conversion of butyl-KLG [3, 5]: particularly high levels of activity | levels of activity / conversion of butyl-KLG [3, 6]: particularly high levels of activity | ASA formed [3, 8]: 3 ppm | BuKLG (remaining substrate) [3, 8]: 5123 ppm | KLG formed [3, 8]: 194 ppm | MeKLG formed [3, 8]: 642 ppm | ASA formed [3, 9]: 54 ppm | BuKLG (remaining substrate) [3, 9]: 634 ppm | KLG formed [3, 9]: 3744 ppm | MeKLG formed [3, 9]: 1724 ppm | ASA formed [3, 10]: 135 | BuKLG (remaining substrate) [3, 10]: 4051 | KLG formed [3, 10]: 2860 | MeKLG formed [3, 10]: 1233 | ASA formed [3, 11]: 6 ppm | BuKLG (remaining substrate) [3, 11]: 1376 ppm | KLG formed [3, 11]: 4293 ppm | MeKLG formed [3, 11]: 1282 ppm | ASA formed [3, 12]: 215 ppm | BuKLG (remaining substrate) [3, 12]: 3045 ppm | KLG formed [3, 12]: 3485 ppm | MeKLG formed [3, 12]: 1235 ppm | ASA formed [3, 13]: 102 ppm | BuKLG (remaining substrate) [3, 13]: 5572 ppm | KLG formed [3, 13]: 1261 ppm | MeKLG formed [3, 13]: 1693 ppm | ASA formed [3, 14]: 67 ppm | BuKLG (remaining substrate) [3, 14]: 5603 ppm | KLG formed [3, 14]: 987 ppm | MeKLG formed [3, 14]: 1360 ppm | ASA formed [3, 15]: 7 | BuKLG (remaining substrate) [3, 15]: 10950 | KLG formed [3, 15]: 97 | MeKLG formed [3, 15]: 447 | ASA formed [3, 16]: 0 | BuKLG (remaining substrate) [3, 16]: 10580 | KLG formed [3, 16]: 387 | MeKLG formed [3, 16]: 0 | ASA formed [4]: 0 | BuKLG [4]: 0 | KLG (remaining substrate) [4]: 3270 | MeKLG formed [4]: 0
